Assay results from FireProtDB (doi:10.1021/bi100877y).

Details: Escherichia coli (strain K12); pH 7; Thermal; DSC; phosphate 50 mM; whole UniProt chain shown

B1: Outer membrane porin C wild type, P06996 (protein)
chain: MKVKVLSLLVPALLVAGAANAAEVYNKDGNKLDLYGKVDGLHYFSDNKDVDGDQTYMRLGFKGETQVTDQLTGYGQWEYQIQGNSAENENNSWTRVAFAGLKFQDVGSFDYGRNYGVVYDVTSWTDVLPEFGGDTYGSDNFMQQRGNGFATYRNTDFFGLVDGLNFAVQYQGKNGNPSGEGFTSGVTNNGRDALRQNGDGVGGSITYDYEGFGIGGAISSSKRTDAQNTAAYIGNGDRAETYTGGLKYDANNIYLAAQYTQTYNATRVGSLGWANKAQNFEAVAQYQFDFGLRPSLAYLQSKGKNLGRGYDDEDILKYVDVGATYYFNKNMSTYVDYKINLLDDNQFTRDAGINTDNIVALGLVYQF
Tm: 87 °C | unfolding enthalpy (calorimetric): 1370 kJ/mol
